Target: ribosomal protein L2 (E. coli, UniProt P60422 1-273)
Test: ELISA

Row | binding result | fold reduction of the interaction against wild-type DnaA | Binder
1 | binds |  | DnaAΔ220-294 lacking residues 220–294 (natural protein) MSLSLWQQCLARLQDELPATEFSMWIRPLQAELSDNTLALYAPNRFVLDWVRDKYLNNINGLLTSFCGADAPQLRFEVGTKPVTQTPQAAVTSNVAAPAQVAQTQPQRAAPSTRSGWDNVPAPAEPTYRSNVNVKHTFDNFVEGKSNQLARAAARQVADNPGGAYNPLFLYGGTGLGKTHLLHAVGNGIMARKPNAKVVYMHSERFVQDMVKALQNNAIEPPELETRVAILMKKADENDIRLPGEVAFFIAKRLRSNVRELEGALNRVIANANFTGRAITIDFVREALRDLLALQEKLVTIDNIQKTVAEYYKIKVADLLSKRRSRSVARPRQMAMALAKELTNHSLPEIGDAFGGRDHTTVLHACRKIEQLREESHDIKEDFSNLIRTLSS
2 | binds |  | DnaA protein (natural protein) MSLSLWQQCLARLQDELPATEFSMWIRPLQAELSDNTLALYAPNRFVLDWVRDKYLNNINGLLTSFCGADAPQLRFEVGTKPVTQTPQAAVTSNVAAPAQVAQTQPQRAAPSTRSGWDNVPAPAEPTYRSNVNVKHTFDNFVEGKSNQLARAAARQVADNPGGAYNPLFLYGGTGLGKTHLLHAVGNGIMARKPNAKVVYMHSERFVQDMVKALQNNAIEEFKRYYRSVDALLIDDIQFFANKERSQEEFFHTFNALLEGNQQIILTSDRYPKEINGVEDRLKSRFGWGLTVAIEPPELETRVAILMKKADENDIRLPGEVAFFIAKRLRSNVRELEGALNRVIANANFTGRAITIDFVREALRDLLALQEKLVTIDNIQKTVAEYYKIKVADLLSKRRSRSVARPRQMAMALAKELTNHSLPEIGDAFGGRDHTTVLHACRKIEQLREESHDIKEDFSNLIRTLSS
3 |  | ~4 fold | DnaAΔ129 lacking the N-terminal 129 residues (domain or fragment) SNVNVKHTFDNFVEGKSNQLARAAARQVADNPGGAYNPLFLYGGTGLGKTHLLHAVGNGIMARKPNAKVVYMHSERFVQDMVKALQNNAIEEFKRYYRSVDALLIDDIQFFANKERSQEEFFHTFNALLEGNQQIILTSDRYPKEINGVEDRLKSRFGWGLTVAIEPPELETRVAILMKKADENDIRLPGEVAFFIAKRLRSNVRELEGALNRVIANANFTGRAITIDFVREALRDLLALQEKLVTIDNIQKTVAEYYKIKVADLLSKRRSRSVARPRQMAMALAKELTNHSLPEIGDAFGGRDHTTVLHACRKIEQLREESHDIKEDFSNLIRTLSS

Reference: paper PMC3105425 (Nucleic Acids Research, 2011)
